Reference: US20200157190A1

Assays:
Antigen 2 [1] = assay: ELISA, supernatant 1 TO 64, Plate 2 (Antigen 2), column 3, BLANK 0.06
Antigen 2 [2] = assay: ELISA, supernatant 1 TO 16, Plate 2 (Antigen 2), column 3, BLANK 0.06
Antigen 1 [3] = assay: ELISA, supernatant 1 TO 1024, Plate 1 (Antigen 1), column 3, BLANK 0.07
Antigen 1 [4] = assay: ELISA, supernatant 1 TO 256, Plate 1 (Antigen 1), column 3, BLANK 0.07
Antigen 2 [5] = assay: ELISA, supernatant 1 TO 4096, Plate 2 (Antigen 2), column 3, BLANK 0.06
Antigen 1 [6] = assay: ELISA, supernatant 1 TO 16, Plate 1 (Antigen 1), column 3, BLANK 0.07
Antigen 1 [7] = assay: ELISA, supernatant 1 TO 64, Plate 1 (Antigen 1), column 3, BLANK 0.07
Antigen 2 [8] = assay: ELISA, supernatant UNDILUTED, Plate 2 (Antigen 2), column 3, BLANK 0.06
Antigen 1 [9] = assay: ELISA, supernatant 1 TO 4, Plate 1 (Antigen 1), column 3, BLANK 0.07
Antigen 2 [10] = assay: ELISA, supernatant 1 TO 256, Plate 2 (Antigen 2), column 3, BLANK 0.06
Antigen 1 [11] = assay: ELISA, supernatant 1 TO 4096, Plate 1 (Antigen 1), column 3, BLANK 0.07
Antigen 1 [12] = assay: ELISA, supernatant UNDILUTED, Plate 1 (Antigen 1), column 3, BLANK 0.07
Antigen 2 [13] = assay: ELISA, supernatant 1 TO 1024, Plate 2 (Antigen 2), column 3, BLANK 0.06
Antigen 2 [14] = assay: ELISA, supernatant 1 TO 4, Plate 2 (Antigen 2), column 3, BLANK 0.06

ELISA plate reading (Antigen 2 [1]): 1.24
ELISA plate reading (Antigen 2 [2]): 1.61
ELISA plate reading (Antigen 1 [3]): 0.06
ELISA plate reading (Antigen 1 [4]): 0.07
ELISA plate reading (Antigen 2 [5]): 0.14
ELISA plate reading (Antigen 1 [6]): 0.16
ELISA plate reading (Antigen 1 [7]): 0.1
ELISA plate reading (Antigen 2 [8]): 2.49
ELISA plate reading (Antigen 1 [9]): 0.45
ELISA plate reading (Antigen 2 [10]): 0.52
ELISA plate reading (Antigen 1 [11]): 0.08
ELISA plate reading (Antigen 1 [12]): 0.66
ELISA plate reading (Antigen 2 [13]): 0.21
ELISA plate reading (Antigen 2 [14]): 1.81
B1: Heavy Chain Construct 4 with Light Chain Construct 2 (VH2-VH1/VL2) (antibody)
heavy: QSLEESGGRLVSPGTPLTLTCTASGFSLSSNAMGWVRQAPGEGLEYIGIIRPGGSTYYASWAKGRFTISKTSSTTVDLKMTSLTTEDTATYFCARAWDIWGPGTLVTVSLGQPKAPSVFPLAPCCGDTPSSTVTLGCLVKGYLPEPVTVTWNSGTLTNGVRTFPSVRQSSGLYSLSSVVSVTSSSQPVTCNVAHPATNTKVDKTVAPSTCSKPTCPPPELLGGRPQPQPQPQPQPQPQPQPQPQPQPQPQPQPQPQSRQSVEESGGRLVTPGTPLTLTCTVSGFSLNTNAIRWVRQAPGKGLEWIGAIDASGNTYYASWAKGRFTISKTSTTVDLKITSPTTEDTATYFCNRFNTANIWGPGTLVTVSSGQPKAPSVFPLAPCCGDTPSSTVTLGCLVKGYLPEPVTVTWNSGTLTNGVRTFPSVRQSSGLYSLSSVVSVTSSSQPVTCNVAHPATNTKVDKTVAPSTCSKPTCPPPELLGGPSVFIFPPKPKDTLMISRTPEVTCVVVDVSQDDPEVQFTWYINNEQVRTARPPLREQQFNSTIRVVSTLPIAHQDWLRGKEFKCKVHNKALPAPIEKTISKARGQPLEPKVYTMGPPREELSSRSVSLACMINGFYPSDISVEWEKNGKAEDNYKTTPAVLDSDGSYFLYSKLSVPTSEWQRGDVFTCSVMHEALHNHYTQKSISRSPGK
light: AFELTQTPSSVEAAVGGTVTIRCQASQSISNQLSWYQQKPGQPPKRLIYRASTLASGVPARFKGSGSGTAFTLTISDLECADGATYYCQSFYYTDVIDYNAFGGGTEVVVTGDPVAPTVLIFPPAADQVATGTVTIVCVANKYFPDVTVTWEVDGTTQTTGIENSKTPQNSADCTYNLSSTLTLTSTQYNSHKEYTCKVTQGTTSVVQSFNRGDC
